# PMC5085866
# Read-outs that look alike come from different tables or passages of the source.
# Tests used:
# Experiment in all cases: AUC
# [1] = target: Enterococcus faecium LiaR receiver domain (residues 1-139) W73C (Enterococcus faecium)
# [2] = target: Enterococcus faecium LiaR receiver domain (residues 1-139) W73C (Enterococcus faecium); remark: listed apart in the source
# [3] = target: Enterococcus faecium LiaR receiver domain (residues 1-139) (Enterococcus faecium)
# [4] = target: Enterococcus faecium LiaR W73C, full length (Enterococcus faecium)
# [5] = target: Enterococcus faecium LiaR W73C, full length (Enterococcus faecium); remark: listed apart in the source
# [6] = target: Enterococcus faecium LiaR DNA binding domain (residues 140-210) (Enterococcus faecium)
substance,measurement,setting,value
Enterococcus faecium LiaR receiver domain (residues 1-139) W73C (domain or fragment),Kd,[1],0.8 µM
same,Kd,[2],94 µM
Enterococcus faecium LiaR receiver domain (residues 1-139) (domain or fragment),Kd,[3],676 µM
"Enterococcus faecium LiaR W73C, full length (natural protein)",Kd,[4],236 µM
same,Kd,[5],182 µM
Enterococcus faecium LiaR DNA binding domain (residues 140-210) (domain or fragment),Kd,[6],0.4 µM
